Results reported in patent US20190062438A1 (CSL, published 2019).

T1: human CD131 (human, UniProt P32927 17-897)
T1 sequence: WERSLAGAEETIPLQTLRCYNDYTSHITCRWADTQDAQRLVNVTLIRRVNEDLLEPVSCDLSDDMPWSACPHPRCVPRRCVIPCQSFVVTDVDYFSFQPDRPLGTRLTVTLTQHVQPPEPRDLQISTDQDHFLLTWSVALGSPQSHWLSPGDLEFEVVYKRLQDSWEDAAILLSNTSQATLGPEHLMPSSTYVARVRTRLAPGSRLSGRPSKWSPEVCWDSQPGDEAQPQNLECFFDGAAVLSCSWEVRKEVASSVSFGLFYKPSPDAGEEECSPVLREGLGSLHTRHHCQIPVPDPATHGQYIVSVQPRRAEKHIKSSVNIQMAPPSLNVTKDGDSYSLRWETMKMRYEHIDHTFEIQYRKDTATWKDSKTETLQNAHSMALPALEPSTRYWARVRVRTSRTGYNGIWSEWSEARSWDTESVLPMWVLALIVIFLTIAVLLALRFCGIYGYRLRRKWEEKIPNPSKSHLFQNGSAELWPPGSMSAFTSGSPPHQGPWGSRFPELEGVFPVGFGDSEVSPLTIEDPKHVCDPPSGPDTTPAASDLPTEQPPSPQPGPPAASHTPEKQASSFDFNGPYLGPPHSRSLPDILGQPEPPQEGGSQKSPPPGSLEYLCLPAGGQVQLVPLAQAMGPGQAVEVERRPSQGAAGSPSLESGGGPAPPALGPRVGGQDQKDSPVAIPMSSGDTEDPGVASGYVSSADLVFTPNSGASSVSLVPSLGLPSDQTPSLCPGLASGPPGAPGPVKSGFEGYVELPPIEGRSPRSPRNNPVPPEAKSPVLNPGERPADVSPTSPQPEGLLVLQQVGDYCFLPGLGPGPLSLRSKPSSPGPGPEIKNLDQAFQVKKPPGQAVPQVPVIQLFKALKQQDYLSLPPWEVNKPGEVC


Target: T1, human CD131
Test: cell-based or functional assay

Binder	IC50 GM-CSF, TF-1 proliferation [nM]
9A2-VR39.116 (antibody, V domains shown) VH: EVQLLESGGGLVQPGGSLRLSCAASGFTFPWFVMVWVRQAPGKGLEWVSSINGRGRVTYYADSVKGRFTISRDNSKNTLYLQMNSLRAEDTAVYYCARFYDSFFDIWGQGTMVTVSS VL: DIQMTQSPSSVSASVGDRVTITCRASQGISSWLAWYQQKPGKAPKLLIYAASSLQSGVPSRFSGSGSGTDFTLTISSLQPEDFATYYCQQANSFPITFGQGTRLEIKR	7.93
9A2-VR39.27 (antibody, V domains shown) VH: EVQLLESGGGLVQPGGSLRLSCAASRTSFMWYHMLWVRQAPGKGLEWVSSINGRGRVTYYADSVKGRFTISRDNSKNTLYLQMNSLRAEDTAVYYCARFYDSFFDIWGQGTMVTVSS VL: DIQMTQSPSSVSASVGDRVTITCRASQGISSWLAWYQQKPGKAPKLLIYAASSLQSGVPSRFSGSGSGTDFTLTISSLQPEDFATYYCQQANSFPITFGQGTRLEIKR	17.9
9A2-VR39.28 (antibody, V domains shown) VH: EVQLLESGGGLVQPGGSLRLSCAASRGAPMWYHMLWVRQAPGKGLEWVSSINGRGRVTYYADSVKGRFTISRDNSKNTLYLQMNSLRAEDTAVYYCARFYDSFFDIWGQGTMVTVSS VL: DIQMTQSPSSVSASVGDRVTITCRASQGISSWLAWYQQKPGKAPKLLIYAASSLQSGVPSRFSGSGSGTDFTLTISSLQPEDFATYYCQQANSFPITFGQGTRLEIKR	57.2
9A2-VR39.46 (antibody, V domains shown) VH: EVQLLESGGGLVQPGGSLRLSCAASDVDFGWYHMLWVRQAPGKGLEWVSSINGRGRVTYYADSVKGRFTISRDNSKNTLYLQMNSLRAEDTAVYYCARFYDSFFDIWGQGTMVTVSS VL: DIQMTQSPSSVSASVGDRVTITCRASQGISSWLAWYQQKPGKAPKLLIYAASSLQSGVPSRFSGSGSGTDFTLTISSLQPEDFATYYCQQANSFPITFGQGTRLEIKR	3.34
9A2-VR39.122 (antibody, V domains shown) VH: EVQLLESGGGLVQPGGSLRLSCAASAGFFEYYHMLWVRQAPGKGLEWVSSINGRGRVTYYADSVKGRFTISRDNSKNTLYLQMNSLRAEDTAVYYCARFYDSFFDIWGQGTMVTVSS VL: DIQMTQSPSSVSASVGDRVTITCRASQGISSWLAWYQQKPGKAPKLLIYAASSLQSGVPSRFSGSGSGTDFTLTISSLQPEDFATYYCQQANSFPITFGQGTRLEIKR	15
9A2-VR39.139 (antibody, V domains shown) VH: EVQLLESGGGLVQPGGSLRLSCAASPRWEWNYHMLWVRQAPGKGLEWVSSINGRGRVTYYADSVKGRFTISRDNSKNTLYLQMNSLRAEDTAVYYCARFYDSFFDIWGQGTMVTVSS VL: DIQMTQSPSSVSASVGDRVTITCRASQGISSWLAWYQQKPGKAPKLLIYAASSLQSGVPSRFSGSGSGTDFTLTISSLQPEDFATYYCQQANSFPITFGQGTRLEIKR	21.5
9A2-VR39.140 (antibody, V domains shown) VH: EVQLLESGGGLVQPGGSLRLSCAASAYSEMWYHMLWVRQAPGKGLEWVSSINGRGRVTYYADSVKGRFTISRDNSKNTLYLQMNSLRAEDTAVYYCARFYDSFFDIWGQGTMVTVSS VL: DIQMTQSPSSVSASVGDRVTITCRASQGISSWLAWYQQKPGKAPKLLIYAASSLQSGVPSRFSGSGSGTDFTLTISSLQPEDFATYYCQQANSFPITFGQGTRLEIKR	42.5
9A2-VR39.148 (antibody, V domains shown) VH: EVQLLESGGGLVQPGGSLRLSCAASGFTFSHYHMLWVRQAPGKGLEWVSSINGRGRVTHVAQEVKGRFTISRDNSKNTLYLQMNSLRAEDTAVYYCARFYDSFFDIWGQGTMVTVSS VL: DIQMTQSPSSVSASVGDRVTITCRASQGISSWLAWYQQKPGKAPKLLIYAASSLQSGVPSRFSGSGSGTDFTLTISSLQPEDFATYYCQQANSFPITFGQGTRLEIKR	1.12
9A2-VR39.162 (antibody, V domains shown) VH: EVQLLESGGGLVQPGGSLRLSCAASGFTFSHYHMLWVRQAPGKGLEWVSSINGRGRVPQMAQEVKGRFTISRDNSKNTLYLQMNSLRAEDTAVYYCARFYDSFFDIWGQGTMVTVSS VL: DIQMTQSPSSVSASVGDRVTITCRASQGISSWLAWYQQKPGKAPKLLIYAASSLQSGVPSRFSGSGSGTDFTLTISSLQPEDFATYYCQQANSFPITFGQGTRLEIKR	3.6
9A2-VR39.77 (antibody, V domains shown) VH: EVQLLESGGGLVQPGGSLRLSCAASGFTFSHYHMLWVRQAPGKGLEWVSSINGRGRVTYYQWPMNKRFTISRDNSKNTLYLQMNSLRAEDTAVYYCARFYDSFFDIWGQGTMVTVSS VL: DIQMTQSPSSVSASVGDRVTITCRASQGISSWLAWYQQKPGKAPKLLIYAASSLQSGVPSRFSGSGSGTDFTLTISSLQPEDFATYYCQQANSFPITFGQGTRLEIKR	2.03
9A2-VR39.93 (antibody, V domains shown) VH: EVQLLESGGGLVQPGGSLRLSCAASGFTFSHYHMLWVRQAPGKGLEWVSSINGRGRVTYYNPAWKKRFTISRDNSKNTLYLQMNSLRAEDTAVYYCARFYDSFFDIWGQGTMVTVSS VL: DIQMTQSPSSVSASVGDRVTITCRASQGISSWLAWYQQKPGKAPKLLIYAASSLQSGVPSRFSGSGSGTDFTLTISSLQPEDFATYYCQQANSFPITFGQGTRLEIKR	0.28
9A2-VR39.174 (antibody, V domains shown) VH: EVQLLESGGGLVQPGGSLRLSCAASGFTFSHYHMLWVRQAPGKGLEWVSSINGRGRVTYYARDHKKRFTISRDNSKNTLYLQMNSLRAEDTAVYYCARFYDSFFDIWGQGTMVTVSS VL: DIQMTQSPSSVSASVGDRVTITCRASQGISSWLAWYQQKPGKAPKLLIYAASSLQSGVPSRFSGSGSGTDFTLTISSLQPEDFATYYCQQANSFPITFGQGTRLEIKR	0.64
9A2-VR39.177 (antibody, V domains shown) VH: EVQLLESGGGLVQPGGSLRLSCAASGFTFSHYHMLWVRQAPGKGLEWVSSINGRGRVTYYALEYKKRFTISRDNSKNTLYLQMNSLRAEDTAVYYCARFYDSFFDIWGQGTMVTVSS VL: DIQMTQSPSSVSASVGDRVTITCRASQGISSWLAWYQQKPGKAPKLLIYAASSLQSGVPSRFSGSGSGTDFTLTISSLQPEDFATYYCQQANSFPITFGQGTRLEIKR	0.52
9A2-VR24.04 (antibody, V domains shown) VH: EVQLLESGGGLVQPGGSLRLSCAASGFTFPWYRVHWVRQAPGKGLEWVSSIHTHRHITYYADSVKGRFTISRDNSKNTLYLQMNSLRAEDTAVYYCARFYDSFFDIWGQGTMVTVSS VL: DIQMTQSPSSVSASVGDRVTITCRASQGISSWLAWYQQKPGKAPKLLIYAASSLQSGVPSRFSGSGSGTDFTLTISSLQPEDFATYYCQQANSFPITFGQGTRLEIKR	0.7
9A2-VR24.07 (antibody, V domains shown) VH: EVQLLESGGGLVQPGGSLRLSCAASGFTFPWYRVHWVRQAPGKGLEWVSSIHTHRNSTYYADSVKGRFTISRDNSKNTLYLQMNSLRAEDTAVYYCARFYDSFFDIWGQGTMVTVSS VL: DIQMTQSPSSVSASVGDRVTITCRASQGISSWLAWYQQKPGKAPKLLIYAASSLQSGVPSRFSGSGSGTDFTLTISSLQPEDFATYYCQQANSFPITFGQGTRLEIKR	1.17
9A2-VR24.10 (antibody, V domains shown) VH: EVQLLESGGGLVQPGGSLRLSCAASGFTFPWYRVHWVRQAPGKGLEWVSSIHTGSQWTYYADSVKGRFTISRDNSKNTLYLQMNSLRAEDTAVYYCARFYDSFFDIWGQGTMVTVSS VL: DIQMTQSPSSVSASVGDRVTITCRASQGISSWLAWYQQKPGKAPKLLIYAASSLQSGVPSRFSGSGSGTDFTLTISSLQPEDFATYYCQQANSFPITFGQGTRLEIKR	9.52
9A2-VR24.12 (antibody, V domains shown) VH: EVQLLESGGGLVQPGGSLRLSCAASGFTFPWYRVHWVRQAPGKGLEWVSSIHTHYQYTYYADSVKGRFTISRDNSKNTLYLQMNSLRAEDTAVYYCARFYDSFFDIWGQGTMVTVSS VL: DIQMTQSPSSVSASVGDRVTITCRASQGISSWLAWYQQKPGKAPKLLIYAASSLQSGVPSRFSGSGSGTDFTLTISSLQPEDFATYYCQQANSFPITFGQGTRLEIKR	0.93
9A2-VR24.19 (antibody, V domains shown) VH: EVQLLESGGGLVQPGGSLRLSCAASGFTFPWYRVHWVRQAPGKGLEWVSSIHTQSKWTYYADSVKGRFTISRDNSKNTLYLQMNSLRAEDTAVYYCARFYDSFFDIWGQGTMVTVSS VL: DIQMTQSPSSVSASVGDRVTITCRASQGISSWLAWYQQKPGKAPKLLIYAASSLQSGVPSRFSGSGSGTDFTLTISSLQPEDFATYYCQQANSFPITFGQGTRLEIKR	0.98
9A2-VR24.24 (antibody, V domains shown) VH: EVQLLESGGGLVQPGGSLRLSCAASGFTFPWYRVHWVRQAPGKGLEWVSSIRTDGTWTYYADSVKGRFTISRDNSKNTLYLQMNSLRAEDTAVYYCARFYDSFFDIWGQGTMVTVSS VL: DIQMTQSPSSVSASVGDRVTITCRASQGISSWLAWYQQKPGKAPKLLIYAASSLQSGVPSRFSGSGSGTDFTLTISSLQPEDFATYYCQQANSFPITFGQGTRLEIKR	1.09
